“Also recorded” adds a separate entry of the source.
Tested on: RBC
Assay: Binding to fresh RBC diluted 2500 times, flow cytometry
Conditions: 20 μg ml^−1, FIG. 6f
Protocol: Similarly, fresh RBC cell was diluted 2500 times, then it was incubated with 20 μg ml^−1 isotype control (human IgG1), hu56di-SIRPα, hu56di-CV1, SIRPα-Fc IgG1 and AB6.12 IgG1, respectively. The results were shown in FIG. 6f, in which serial numbers of 1, 2, 3, 4 and 5 correspond to isotype control, hu56di-SIRPα, hu56di-CV1, SIRPα-Fc IgG1 and AB6.12 IgG1.

B1: hu56di-CV1: heterodimer of hu56di-Fc9 and CV1-Fc6, Group 14 (protein)
chain 1: QVQLVESGGGLVQPGGSLRLSCAASGKMSSRRCMAWFRQAPGKERERVAKLLTTSGSTYLADSVKGRFTISRDNSKNTVYLQMNSLRAEDTAVYYCAADSFEDPTCTLVTSSGAFQYWGQGTLVTVSSGAPQVQLVESGGGLVQPGGSLRLSCAASGKMSSRRCMAWFRQAPGKERERVAKLLTTSGSTYLADSVKGRFTISRDNSKNTVYLQMNSLRAEDTAVYYCAADSFEDPTCTLVTSSGAFQYWGQGTLVTVSSEPKSSDKTHTCPPCPAPELLGGPSVFLFPPKPKDTLMISRTPEVTCVVVDVSHEDPEVKFNWYVDGVEVHNAKTKPREEQYNSTYRVVSVLTVLHQDWLNGKEYKCKVSNKALPAPIEKTISKAKGQPREPQVYTLPPCRDELTKNQVSLWCLVKGFYPSDIAVEWESNGQPENNYKTTPPVLDSDGSFFLYSALTVDKSRWQQGNVFSCSVMHEALHNHYTQKSLSLSPGK
chain 2: EEELQIIQPDKSVLVAAGETATLRCTITSLFPVGPIQWFRGAGPGRVLIYNQRQGPFPRVTTVSDTTKRNNMDFSIRIGNITPADAGTYYCIKFRKGSPDDVEFKSGAGTELSVRAKPSGGGGSDKTHTCPPCPAPELLGGPSVFLFPPKPKDTLMISRTPEVTCVVVDVSHEDPEVKFNWYVDGVEVHNAKTKPREEQYNSTYRVVSVLTVLHQDWLNGKEYKCKVSNKALPAPIEKTISKAKGQPREPQVYTLPPSRDELTKNQVSLSCGVKGFYPSDIAVEWESNGQPENNYKTTPPVLDSDGSFKLASKLTVDKSRWQQGNVFSCSVMHEALHNHYTQKSLSLSPGK
binding to RBC: stronger binding to RBC than hu56di-SIRPα; also recorded: comparable binding to RBC with AB6.12 IgG1
